Reference: patent US10202593B2, “Evolved sortases and uses thereof” (President and Fellows of Harvard College, priority 2013, dated 2019)
Substitutions are numbered along the chain they refer to. Names and notes keep the numbering of the source. Read-outs that look alike come from different tables or passages of the source.

B1: eSrtA(2A-4): 5mut + A104H K162R V168I I182V (protein)
chain: QAKPQIPKDKSKVAGYIEIPDADIKEPVYPGPATREQLNRGVSFHEENESLDDQNISIAGHTFIDRPNYQFTNLKAAKKGSMVYFKVGNETRKYKMTSIRNVRPTAVEILDEQKGKDKQLTLVTCDDYNEETGVWETRKIFVATEVK
B2: eSrtA(2A-5): 5mut + R99H A104H K138I K162R I182V (protein)
chain: B1 chain with R40H, K79I, I109V
B3: 2A.6C: 5mut + A104H K138P K152I D160K* K162R I182V (protein)
chain: B1 chain with K79P, K93I, N101K, I109V
B4: eSrtA(2A-3): round 3 LAETG clone: eSrtA + K84R F122S D124G K134R K145E K162R V168I K177R I182F (protein)
chain: B1 chain with K25R, H45A, F63S, D65G, K75R, K86E, K118R, V123F
B5: eSrtA(2A-3.5) (protein)
chain: B1 chain with H45A, V123F
B6: SrtA: wild-type Staphylococcus aureus sortase A (SEQ ID NO: 1) (protein)
chain: MKKWTNRLMTIAGVVLILVAAYLFAKPHIDNYLHDKDKDEKIEQYDKNVKEQASKDKKQQAKPQIPKDKSKVAGYIEIPDADIKEPVYPGPATPEQLNRGVSFAEENESLDDQNISIAGHTFIDRPNYQFTNLKAAKKGSMVYFKVGNETRKYKMTSIRDVKPTDVEVLDEQKGKDKQLTLITCDDYNEKTGVWEKRKIFVATEVK
modifications: S. aureus
B7: eSrtA(2A-9) H104A (protein)
chain: QAKPQIPKDKSKVAGYIEIPDADIKEPVYPGPATREQLNRGVCFADENESLDDQNISIAGHTFIDRPNYQFTNLKAAKPGSMVYFKVGNETRIYKMTSIRKVHPNAVEVLDEQEGKDKQLTLVTCDDYNEETGVWESRKIFVATEVK
B8: eSrtA(2A-9) V182I (protein)
chain: B7 chain with A45H, V123I
B9: eSrtA(4S-9) V182I (protein)
chain: QAKPQIPKDKSKVAGYIEIPDADIKEPVYPGPATREQLDRGVCFVEENESLDDQNISITGHTAIDRPNYQFTNLRAAKKGSMVYLKVGNETRKYKMTSIRNVKPTAVEVLDEQKGKDKQLTLITCDDYNFETGVWETRKIFVATEVK
B10: 2A.6B: 5mut + R99K A104H K138V D160K* K162R I182V (protein)
chain: B1 chain with R40K, K79V, N101K, I109V

Key:
Format in all cases: biochemical
[1] = system: LPETG (Abz-LPETGK(Dnp)-CONH2); assay: In vitro sortase kinetics HPLC assay, LPETG substrate
Protocol: (§1) See below for details on sortase expression and purification, and on the synthesis of Abz-LPETGK(Dnp)-CONH2 (SEQ ID NO: 19). […] Reactions were initiated with the addition of enzyme and incubated at 22.5° C. for 3 to 20 minutes before quenching with 0.5 volumes of 1 M HCl. Five to ten nmol of peptide from the quenched reactions were injected onto an analytical reverse-phase Eclipse XDB-C18 HPLC column (4.6×150 mm, 5 μm, Agilent Technologies) and chromatographed using a gradient of 10 to 65% acetonitrile with 0.1% TFA in 0.1% aqueous TFA over 13 minutes. Retention times under these conditions for the Abz-LPETGK(Dnp)-CONH2 (SEQ ID NO: 19) substrate, the released GKDnp peptide, and the Abz-LPETGGG-COOH (SEQ ID NO: 20) product were 12.8, 10.4, and 9.1 min, respectively. To calculate the percent conversion, the ratio of the integrated areas of the Abz-LPETGGG-COOH (SEQ ID NO: 20) and Abz-LPETGK(Dnp)-CONH2 (SEQ ID NO: 19) peptide Abs220 peaks was compared to a standard curve generated by mixing the product and starting peptide in known ratios. To determine […] and Km, reaction rates were fit to the Michaelis-Menten equation using OriginPro 7.0 software. All kinetics values reported represent the average of at least three measurements. Percent conversion was also calculated by using the ratio of the integrated areas of the GK(Dnp)-CONH2 and Abz-LPETGK(Dnp)-CONH2 peptide Abs355 peaks were compared directly (Example 5). To determine kcat and Km, LPETG, reaction rates were fit to the Michaelis-Menten equation using Microsoft Excel using the Solver add-in. To determine Km,GGG and KH, reaction rates were fit to the modified Michaelis-Menten, for which KH is as defined when KH<<Km,GGG.
(§2) Assays to determine eSrtA, eSrtA(2A-9) and eSrtA(4S-9) specificity were performed by preparing 10 μM stocks of Abz-LXEXGK(Dnp) (SEQ ID NO: 75) peptides in 300 mM Tris pH 7.5, 150 mM NaCl, 5 mM CaCl2, 5% v/v DMSO, and 100 mM Gly-Gly-Gly-COOH (GGG). Reactions were performed by adding eSrtA(2A-9) to a final concentration of 450 nM, eSrtA(4S-9) to a final concentration of 115 nM or eSrtA to a final concentration of 47.5 nM and a final volume of 100 μL, then incubating at 22.5° C. for 15 minutes. Reactions were quenched by the addition of 0.2 volumes of 5 M HCl, then were injected onto an analytical reverse-phase Eclipse XDB-C18 HPLC column (4.6×150 mm, 5 μm, Agilent Technologies) and chromatographed using a gradient of 10 to 65% acetonitrile with 0.1% TFA in 0.1% aqueous TFA over 13 minutes. Retention times under these conditions for the Abz-LPETGK(Dnp)-CONH2 (SEQ ID NO: 19) substrate, the released GKDnp peptide, and the Abz-LPETGGG-COOH (SEQ ID NO: 20) product were 12.8, 10.4, and 9.1 min, respectively, while the remaining Abz-LXEXGK(Dnp)-CONH2 (SEQ ID NO: 74) substrates varied in retention time between 9 and 13 minutes. To calculate the percent conversion, the ratio of the integrated areas of the GK(Dnp)-CONH2 and Abz-LPETGK(Dnp)-CONH2 (SEQ ID NO: 19) peptide Abs355 peaks were compared directly. Subsequent determination of kcat/Km and KH were performed as described for in vitro SrtA characterization.
(§3) In each case, rate constants were determined by measuring enzyme velocity at eight different substrate concentrations by HPLC assay, then fit using nonlinear regression to the Michaelis-Menten equation, yielding kcat and Km. KH was calculated by measuring enzyme velocity at 1 mM target substrate and eight different GGG concentrations by HPLC assay, then fitting the resulting curves using nonlinear regression to the modified Michaelis-Menten equation.

[2] = system: LAETG (Abz-LAETGK(Dnp)-CONH2); assay: In vitro sortase kinetics HPLC assay, LAETG substrate; details: for increase in kcat/Km for LAETG as compared to LPETG / increased affinity (KM) for the LAETG substrate as compared to the LPETG substrate: FIG. 1; for preference for LAETG over LPETG / preference for LPETG over LAETG: ratio of kcat/KM; for Specificity (relative catalytic efficiency, fold): ratio of kcat/KM between 2A (LAETG) and wt (LPETG); for specificity (relative cat. Efficiency, fold): ratio of kcat/Km between 2A (LAETG) and wt (LPETG) substrates, favoured over disfavoured; for kcat, 1 mM LxExG (Hz) / kHydrolysis (Hz): GGG varied; for kHydrolysis (Hz): 1 mM
Protocol: as §1, §2, §3

[3] = system: LPESG (Abz-LPESGK(Dnp)-CONH2); assay: In vitro sortase kinetics HPLC assay, LPESG substrate; details: reversion of V182
Protocol: as §1, §2, §3

[4] = Example 5 variants, substrate wt (LPETG)
[5] = Example 5 variants, substrate wt (LPETG), read-out: Avg KM
[6] = substrate wt (LPETG), read-out: Km, LxExG
[7] = Example 5 variants, substrate 2A (LAETG)
[8] = Example 5 variants, substrate 2A (LAETG), read-out: Avg KM
[9] = substrate 2A (LAETG), read-out: Km, LxExG
[10] = 1 mM 2A (LAETG) substrate, read-out: Km, GGG

| Molecule | Avg kcat (Hz) [1, 4] | Km [1, 5] | kcat, 10 mM GGG (Hz) ([1]; substrate wt (LPETG)) | Km [1, 6] | Avg kcat (Hz) [2, 7] | Km [2, 8] | Specificity (relative catalytic efficiency, fold) [2] | specificity (relative cat. Efficiency, fold) [2] | kcat, 10 mM GGG (Hz) ([2]; substrate 2A (LAETG)) | Km [2, 9] | Khydrolysis ([2]; 1 mM 2A (LAETG) substrate) | kcat, 1 mM LxExG (Hz) ([2]; 1 mM 2A (LAETG) substrate) | Km [2, 10] | kL/KL/KH ([2]; substrate 2A (LAETG)) | kHydrolysis (Hz) ([2]; substrate 2A (LAETG)) | other results |
| --- | --- | --- | --- | --- | --- | --- | --- | --- | --- | --- | --- | --- | --- | --- | --- | --- |
| B1 | 0.0501 Hz | 5.18 mM | 0.09356 Hz | 11.7 mM | 1.988 Hz | 3.72 mM | 55.11 fold | 73.05 fold | 1.901 Hz | 3.25 mM |  |  |  |  |  | increase in kcat/Km for LAETG as compared to LPETG [2]: ~40 fold; preference for LAETG over LPETG [2]: 73 fold |
| B2 |  |  | 0.1375 Hz | 4.9 mM |  |  |  | 115.7 fold | 1.41 Hz | 0.433 mM | 615.9 µM | 1.493 Hz | 2.81 mM | 5.29E+06 | 0.324 Hz | increase in kcat/Km for LAETG as compared to LPETG [2]: ~125 fold; increased affinity (KM) for the LAETG substrate as compared to the LPETG substrate [2]: ~116 fold; KH ([2]; GGG concentration at which hydrolysis and transpeptidation rates are equal, unit not given): 731±235 |
| B3 |  |  | 0.07676 Hz | 1.98 mM |  |  |  | 61.61 fold | 0.8129 Hz | 0.343 mM | 12.49 µM | 0.5359 Hz | 0.642 mM | 1.91E+08 | 0.01048 Hz | increased affinity (KM) for the LAETG substrate as compared to the LPETG substrate [2]: ~61 fold |
| B4 | 2.653 Hz | 2.1 mM |  |  | 1.117 Hz | 1.62 mM | 1.436 fold |  |  |  |  |  |  |  |  | preference for LPETG over LAETG [2]: 1.4 fold; reduced catalytic efficiency ([2]; round 3 clone, LAETG target): > 10 fold |
| B5 | 1.525 Hz | 3.75 mM | 1.587 Hz | 4.11 mM | 1.14 Hz | 6.37 mM | 2.252 fold |  | 1.249 Hz | 7.16 mM |  |  |  |  |  | lower activity than that of eSrtA on its native LPETG substrate ([2]; minimal mutant, LPETG and LAETG processed): ~100 fold |
| B6 |  |  | 1.221 Hz | 5.18 mM |  |  |  |  |  |  |  |  |  |  |  | KH ([1]; 1 mM LPETG): 14.3 ± 0.8 µM; KN ([1]; 1 mM LPETG, eight GGG concentrations): 14.3 ± 0.8 µM; Km ([1]; 1 mM LPETG, read-out: Km,GGG): 0.211 ± 0.008 mM; Khydrolysis ([1]; 1 mM wt (LPETG) substrate): 28.38 µM; kcat, 1 mM LxExG (Hz) ([1]; 1 mM wt (LPETG) substrate, GGG varied): 0.1731 Hz; Km ([1]; 1 mM wt (LPETG) substrate, read-out: Km, GGG): 0.291 mM; KH,LPETG ([1]; LPETG substrate): 14.3 ± 0.8 µM; Kcat (Hz) ([1]; Sub LPETG, 100 mM GGG): 1.5 ± 0.2 Hz; Km ([1]; Sub LPETG, 100 mM GGG, read-out: Km): 7.6 ± 0.5 mM; Rel. Activity ([1]; Sub LPETG, kcat/Km of the enzyme's preferred substrate relative to kcat/Km on this substrate): 1; Kcat (Hz) ([1]; Table 2, Sub LPETG): 1.5 ± 0.2 Hz; Km ([1]; Table 2, Sub LPETG, read-out: Km): 7.6 ± 0.5 mM; kL/KL/KH ([1]; substrate wt (LPETG)): 8.30E+06; kHydrolysis (Hz) ([1]; substrate wt (LPETG), 1 mM, GGG varied): 0.01657 Hz |
| B7 |  |  |  |  |  |  |  |  |  |  |  |  |  |  |  | preference for LPETG over LAETG [2]: 60 fold |
| B8 |  |  |  |  |  |  |  |  |  |  |  |  |  |  |  | preference for LAETG over LPETG [2]: 85 fold; activity level for LAETG ([2]; reversion of V182): lowers the activity level for LAETG |
| B9 |  |  |  |  |  |  |  |  |  |  |  |  |  |  |  | selectivity and overall activity [3]: preserved selectivity but decreased overall activity |
| B10 |  |  |  |  |  |  |  |  | 0.6977 Hz | 0.31 mM | 12.49 µM | 0.5359 Hz | 0.642 mM | 1.81E+08 | 0.01048 Hz |  |
